Results taken from PMC10696041.

B1: MBP-CUB1CUB2 domains of PCPE-2, WT [human] / bone morphogenetic protein-1 [human] (parent)
chain 1: QSPERPVFTCGGILTGESGFIGSEGFPGVYPPNSKCTWKITVPEGKVVVLNFRFIDLESDNLCRYDFVDVYNGHANGQRIGRFCGTFRPGALVSSGNKMMVQMISDANTAGNGFMAMFSAAEPNERGDQYCGGLLDRPSGSFKTPNWPDRDYPAGVTCVWHIVAPKNQLIELKFEKFDVERDNYCRYDYVAVFNGGEVNDARRIGKYCGDSPPAPIVSERNELLIQFLSDLSLTADGFIGHYIFRPK
chain 2: AATSRPERVWPDGVIPFVIGGNFTGSQRAVFRQAMRHWEKHTCVTFLERTDEDSYIVFTYRPCGCCSYVGRRGGGPQAISIGKNCDKFGIVVHELGHVVGFWHEHTRPDRDRHVSIVRENIQPGQEYNFLKMEPQEVESLGETYDFDSIMHYARNTFSRGIFLDTIVPKYEVNGVKPPIGQRTRLSKGDIAQARKLYKCPACGETLQDSTGNFSSPEYPNGYSAHMHCVWRISVTPGEKIILNFTSLDLYRSRLCWYDYVEVRDGFWRKAPLRGRFCGSKLPEPIVSTDSRLWVEFRSSSNWVGKGFFAVYEAICGGDVKKDYGHIQSPNYPDDYRPSKVCIWRIQVSEGFHVGLTFQSFEIERHDSCAYDYLEVRDGHSESSTLIGRYCGYEKPDDIKSTSSRLWLKFVSDGSINKAGFAVNFFKEVDECSRPNRGGCEQRCLNTLGSYKCSCDPGYELAPDKRRCEAACGGFLTKLNGSITSPGWPKEYPPNKNCIWQLVAPTQYRISLQFDFFETEGNDVCKYDFVEVRSGLTADSKLHGKFCGSEKPEVITSQYNNMRVEFKSDNTVSKKGFKAHFFSEKRPALQPPRGRPHQLKFRVQKRNRTPQ

Variants of: B1
Test: SPR
Conditions: with bone morphogenetic protein-1 [human]; 50 nM MBP-CUB1CUB2; immobilized BMP-1 (1302 RU); parent: 17; read off a plot

response [RU]	Variant
7.2	chain 1 QSPERPVFTCGGILTGESGFIGSEGFPGVYPPNSKCTWKITVPEGAVVVLNFRFIDLESDNLCRYDFVDVYNGHANGQRIGRFCGTFRPGALVSSGNKMMVQMISDANTAGNGFMAMFSAAEPNERGDQYCGGLLDRPSGSFKTPNWPDRDYPAGVTCVWHIVAPKNQLIELKFEKFDVERDNYCRYDYVAVFNGGAVNDARRIGKYCGDSPPAPIVSEANELLIQFLSDLSLTADGFIGHYIFRPK [chain 1 K46A E197A R220A]
16	chain 1 QSPERPVFTCGGILTGESGFIGSEGFPGVYPPNSKCTWKITVPEGKVVVLNFRFIDLESDNLCRYDFVDVYNGHANGQRIGRFCGTARPGALVSSGNKMMVQMISDANTAGNGFMAMFSAAEPNERGDQYCGGLLDRPSGSFKTPNWPDRDYPAGVTCVWHIVAPKNQLIELKFEKFDVERDNYCRYDYVAVFNGGEVNDARRIGKYCGDSPPAPIVSERNELLIQFLSDLSLTADGFIGHYIFRPK [chain 1 F87A]
18	chain 1 QSPERPVFTCGGILTGESGFIGSEGFPGVYPPNSKCTWKITVPEGKVVVLNFRFIDLESDNLCRYDFVDVYNGHANGQRIGRFCGTFRPGALVSSGNKMMVQMISDANTAGNGFMAMFSAAEPNERGDQYCGGLLDRPSGSFKTPNWPDADYPAGVTCVWHIVAPKNQLIELKFEKFDVERDNYCRYDYVAVFNGGEVNDARRIGKYCGDSPPAPIVSERNELLIQFLSDLSLTADGFIGHYIFRPK [chain 1 R150A]

Same assay, conditions: with bone morphogenetic protein-1 [human]; 50 nM MBP-CUB1CUB2; immobilized BMP-1 (1302 and 1492 RU); parent: 100; read off a plot

percent of parent (% binding / WT)	Variant
40	chain 1 QSPERPVFTCGGILTGESGFIGSEGFPGVYPPNSKCTWKITVPEGAVVVLNFRFIDLESDNLCRYDFVDVYNGHANGQRIGRFCGTFRPGALVSSGNKMMVQMISDANTAGNGFMAMFSAAEPNERGDQYCGGLLDRPSGSFKTPNWPDRDYPAGVTCVWHIVAPKNQLIELKFEKFDVERDNYCRYDYVAVFNGGAVNDARRIGKYCGDSPPAPIVSEANELLIQFLSDLSLTADGFIGHYIFRPK [chain 1 K46A E197A R220A]
